According to article PMC6925130, “Cleaved CD31 as a target for in vivo molecular imaging of inflammation” (Scientific Reports, 2019):
Non-standard residues stand in square brackets, D forms with d. Residues, ends and D or L forms follow the SMILES beside them. *: point of attachment. HYNIC = NNc1ccc(C(=O)*)cn1; PEG3 = NCCOCCOCCOCCC(=O)O

What was measured:
[1] = tested on: turpentine injected hindlimb (sterile acute inflammation); assay: SPECT/CT and PET/MRI imaging of turpentine oil-induced sterile acute inflammation; assay type: in vivo, male Wistar rats; conditions: turpentine injected hindlimb / saline injected hindlimb; PET/MRI 1 h p.i., retro-orbital ≈20 MBq; n = 23
Experimental: Two to 3-month-old adult male Wistar rats, weighing 250–300 g were used. The animals were housed in a controlled environment. The procedures and animal care complied with the principles formulated by the National Society for Medical Research. All methods were performed in accordance with the guidelines of the French Directorate of Veterinary Services (authorization: No. 75-214). All methods were approved by the animal ethics committee of the Claude Bernard Institute (APAFIS #14821, Paris, France). Aseptic inflammation was obtained according to a standardized procedure consisting of turpentine oil injection characterized by a massive local influx of activated inflammatory cells[33],[34]. […]
Imaging procedures of ^99mTc-HYNIC-P8RI (D and L) were performed using Single Photon Emission Computed Tomography coupled to X-ray computed tomography (SPECT/CT). […] Reconstructed slices were visually assessed in 3 planes (axial, coronal, and sagittal). […]
Three-dimensional Regions of Interests (3D-ROIs) were placed on the inflammatory muscles and the mean signal per volume unit (kBq/mL) was measured. Assuming a tissue density of 1 g/mL, the radioactivity contained in the ROI was divided by the dose administered to the animal and the volume of the ROI to obtain an imaging ROI-derived % ID/g. […]

in vitro [2] = assay type: in vitro ADME; conditions: human, plasma
Experimental: Plasma stability was assessed in triplicate at 1, 2 and 4 h after incubation of the radiolabeled D-P8RI peptide (final concentration 100 pmol/mL) in human plasma at 37 °C with RCP ≥94%. After precipitation of plasma proteins with acetonitrile and centrifugation (15000 × g, 10 min), the supernatant was analyzed by RP-HPLC as described in Supplementary Data. Plasma stability was expressed in RCP (%).

physchem = assay type: physicochemical; conditions: pH 7.2
Experimental: 500 µL of^ 99mTc-HYNIC-D-P8RI in PBS (pH 7.2) was added to 500 µL of octanol in a 1.5 mL conical vial. After 15 min of vortexing, the vial was centrifuged at 5000xg for 3 min. A 100 µL aliquot of both phases was collected in triplicate and counted with a gamma counter then log P values were calculated.

in vivo = assay: in vivo; set-up: species or system male Wistar rats; conditions: male, Wistar, rat, iv, 30 MBq, total radioactivity, Biodistribution
Experimental: Biodistribution of ^99mTc-HYNIC-D-P8RI was performed 15, 30, 90 min and 24 h post-injection. Animals (n = 3 for each time point) were injected intravenously through penis vein with 30 ± 3 MBq of ^99mTc-HYNIC-D-P8RI. They were sacrificed by isoflurane overdose and blood, heart, liver, thyroid, spleen, kidney, brain, intestine and muscle tissues were harvested and counted using a well counter. Results were expressed as the percentage of injected dose per gram of tissue (% ID/g). To characterize radiotracer elimination and potential degradation, rat urine was collected 90 min p.i, passed through a 0.22 µm PVDF filter (Durapore^TM 13 mm, Merck), and analyzed using RP-HPLC as described in Supplementary Data.

in vitro [3] = assay type: in vitro ADME; conditions: human, plasma; remark: listed apart in the source
Experimental: Protein binding of the purified radiolabeled D-P8RI peptide (final concentration 100 pmol/mL) was determined in triplicate after 0, 0.5, 1, 2, 3 and 4 h of incubation in fresh human plasma (collected in citrate tubes) at 37 °C and analyzed after size exclusion chromatography (illustra Microspin G-50 Columns, Sephadex G-50, GE Healthcare, UK). Simultaneously, radiolabeled peptide was incubated in PBS at 37 °C as a control. G-50 columns were prespun at 2000 × g for 1 min then 20 μL of mixture was added and the column was centrifuged at 2000 × g for 2 min. Columns and eluates were counted on a Wallac Wizard 3″ 1480 (Perkin Elmer, MA, USA), then protein binding was calculated using the following activity (A) ratio: A eluate/(A column + A eluate).

Row | SMILES | Mean signal ratio (TIH/SIH), PET/MRI [1] | remaining at 1 h, 100 pmol/mL (in vitro [2]) | remaining at 2 h, 100 pmol/mL (in vitro [2]) | logD (physchem) | tissue uptake at 1.5 h (in vivo; bladder) | tissue uptake at 0.25 h (in vivo; blood) | tissue uptake at 24 h (in vivo; blood) | tissue uptake at 1.5 h (in vivo; kidney) | fraction unbound at 0 h, 100 pmol/mL (in vitro [3]) | fraction unbound at 0.5 h, 100 pmol/mL (in vitro [3])
1 | O=C[C@H]([18F])[C@@H](O)[C@H](O)[C@H](O)CO [[^18F]FDG, 2-deoxy-2-[^18F]fluoro-D-glucose] | 4.49 ± 0.43 |  |  |  |  |  |  |  |  | 
2 | CC(C)C[C@@H](NC(=O)[C@@H](C)NC(=O)[C@H]1CCCN1C(=O)[C@@H](Cc1c[nH]c2ccccc12)NC(=O)[C@@H](CCCCN)NC(=O)CCOCCOCCOCCNC(=O)c1ccc(NN)nc1)C(=O)N[C@H](Cc1ccccc1)C(=O)N[C@@H](C(=O)N[C@H](CCCNC(=N)N)C(=O)O)C(C)C [^99mTc-HYNIC-D-P8RI, metal not drawn] ({HYNIC-PEG3}-[dK][dW][dP][dA][dL][dF][dV][dR]-OH) |  | 93.02 ± 0.04% | 91.05 ± 0.02% | -2.92 ± 0.04 | 61.4 ± 13.4 %ID/g | 9.74 ± 1.21 %ID/g | 0.04 ± 0.02 %ID/g | 14 ± 2.93 %ID/g | 0.928 | 0.952
